Earlier results as cited in PMC4132707.

Legend:
[1] = molecular target: H1K26me3 peptide (Homo sapiens) (UniProt P10412)
[2] = molecular target: H3K27me3 peptide (Homo sapiens) (UniProt P68431)

Sequence of EED (O75530 2-441): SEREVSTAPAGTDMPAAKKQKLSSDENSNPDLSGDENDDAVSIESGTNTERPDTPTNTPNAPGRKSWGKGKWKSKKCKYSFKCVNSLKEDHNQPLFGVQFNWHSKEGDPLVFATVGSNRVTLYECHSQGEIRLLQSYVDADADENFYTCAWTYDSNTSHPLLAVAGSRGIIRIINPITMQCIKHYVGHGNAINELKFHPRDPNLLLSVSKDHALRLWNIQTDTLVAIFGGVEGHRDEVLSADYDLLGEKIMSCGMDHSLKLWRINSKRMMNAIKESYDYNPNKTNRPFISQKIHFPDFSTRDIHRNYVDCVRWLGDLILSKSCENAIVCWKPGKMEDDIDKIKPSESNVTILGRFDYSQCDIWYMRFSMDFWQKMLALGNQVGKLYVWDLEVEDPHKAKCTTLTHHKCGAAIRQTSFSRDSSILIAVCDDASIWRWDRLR
Sequence of H1K26me3 peptide (Homo sapiens) (P10412 2-219): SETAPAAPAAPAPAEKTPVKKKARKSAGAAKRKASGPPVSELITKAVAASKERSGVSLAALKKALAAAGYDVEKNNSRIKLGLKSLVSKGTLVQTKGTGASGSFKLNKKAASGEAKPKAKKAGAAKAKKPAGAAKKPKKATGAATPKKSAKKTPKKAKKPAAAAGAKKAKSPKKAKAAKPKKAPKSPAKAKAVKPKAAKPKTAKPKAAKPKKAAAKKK

Kd [1]: > 20 µM | Kd [2]: > 20 µM
Substance: EED (from UniProt O75530)
